Reference: paper PMC5552905, “Mechanisms of peptide sex pheromone regulation of conjugation in Enterococcus faecalis” (MicrobiologyOpen, 2017)
“Also recorded” adds a separate entry of the source. Read-outs that look alike come from different tables or passages of the source.

What was measured:
[1] = test system: P Q (prgQ promoter) lacZ reporter; assay: β-galactosidase assay of P Q-lacZ reporter (pBK2, pBK2 + 5, pBK2 + 10) in E. faecalis; format: cell-based, Enterococcus faecalis; settings: 10 ng/ml of C, 30 min at 37°C, PrgX in trans from pCF10, one experiment representative of three
Description: To construct plasmids pBK2 + 5 and pBK2 + 10, the intergenic region between prgQ and prgX was excised from plasmids pBKAdd5 and pBKAdd10 and was cloned into pBK2 using enzymes XhoI and BamHI. Plasmids pBKAdd5 and pBKAdd10 (have the 5‐bp and 10‐bp sequence inserted between XBS1 and XBS2 sites (Kozlowicz, 2005).
E. faecalis cultures were grown overnight in M9‐YEG broth at 37°C with selective antibiotics. Cultures were then diluted 1:10 in fresh medium and grown for 90 min at 37°C. For induction, a final concentration of 10 ng/ml of C was added and cells were incubated for additional 30 min at 37°C. A modified Miller assay was performed as previously described (Kozlowicz, Bae, & Dunny, 2004).
To examine the effects of looping in vivo, we introduced the +5 and +10 base pair insertions between XBS1 and XBS2 sites on the reporter plasmid pBK2, which has a pheromone‐inducible lacZ reporter gene fused downstream from P Q. This enables transcription from P Q to be monitored by measuring β‐galactosidase activity in cell extracts. We transformed these constructs into either OG1Sp or OG1Sp/pCF10 (to provide PrgX protein in trans) and the resulting strains were assayed for β‐galactosidase production in the presence or absence of C.
Figure 4 Expression of β‐galactosidase from E. faecalis cells containing pBK2, pBK2 + 5, and pBK2 + 10. […]

[2] = test system: LT DNA (prgQ promoter); format: binding, Enterococcus faecalis (plasmid pCF10)
Source text: (§1) The LT DNA template containing XBS1 and XBS2 sites (LT DNA, pCF10 sequence from nt 8029 to nt8185 (Hirt et al., 2005)) was PCR amplified from pCF10 using primers as described in. The XBS1 DNA template only has XBS1 site (pCF10 sequence 8029–8131nt) was made by annealing oligos ‐129/‐47‐F (5′[…] 3′) and −129/−47R (5′[…] 3′) to obtain double‐stranded DNA. The XBS2 DNA template only has the XBS2 site (pCF10 sequence from 8109 to 8290; −66 to +114 relative to the prgQ transcription initiation site), and was PCR amplified from pCF10 using primers as described in Caserta et al., 2012. In DNA templates with 5‐bp or 10‐bp insertions, sequence GTACC or […] was inserted between XBS1 and XBS2 sites and at a position of 6‐bp after the XBS1 site. DNA probes were labeled at the 3′‐ends with DIG‐11‐ddUTP using the DIG Gel Shift kit (Roche) by following the manufacturer's instructions. EMSA assays were performed in 20 μl reactions: DIG‐labeled DNA, purified proteins, 1 μg of poly‐[d(A‐T)], 0.1 μg of poly‐L‐lysine, 1 × reaction buffer (20 mmol L^−1 Tris‐HCl, pH 7.9, 0.1 mol L^−1 NaCl, 0.1 mmol L^−1 EDTA, 10% glycerol, 0.01 mol L^−1 MgCl2). The reactions were incubated at room temperature for 15 min and loaded onto 5% polyacrylamide gels in 1 × TBE buffer (Tris, Borate, EDTA, pH 7.9). After electrophoresis at 100 V for 1.5 h, the DNA–protein complexes and DNA probes were electrotransferred onto a nylon membrane (Roche) at 6 V for 2 h using the GENIE electrophoretic blotter (Idea Scientific). DIG‐labeled DNA fragments were visualized by an enzyme immunoassay (DIG Gel Shift Kit, Roche) following the manufacturer's instructions. […] For the experiments reported here the powdered form of the peptides were initially solubilized in pure DMF at 0.5 mg/ml, and then diluted 10‐fold in KPBS for use as a working stock solution, which was diluted into the EMSA reactions to a final peptide concentration of 40 nmol L^−1.

[3] = test system: LT DNA (containing XBS1 and XBS2 sites); format: binding, Enterococcus faecalis (plasmid pCF10)
Source text: as §1

[4] = test system: +5 probe (5 bp inserted between XBS1 and XBS2 sites)
Source text: (§2) The LT DNA template containing XBS1 and XBS2 sites (LT DNA, pCF10 sequence from nt 8029 to nt8185 (Hirt et al., 2005)) was PCR amplified from pCF10 using primers as described in. The XBS1 DNA template only has XBS1 site (pCF10 sequence 8029–8131nt) was made by annealing oligos ‐129/‐47‐F (5′[…] 3′) and −129/−47R (5′[…] 3′) to obtain double‐stranded DNA. The XBS2 DNA template only has the XBS2 site (pCF10 sequence from 8109 to 8290; −66 to +114 relative to the prgQ transcription initiation site), and was PCR amplified from pCF10 using primers as described in Caserta et al., 2012. In DNA templates with 5‐bp or 10‐bp insertions, sequence GTACC or […] was inserted between XBS1 and XBS2 sites and at a position of 6‐bp after the XBS1 site. DNA probes were labeled at the 3′‐ends with DIG‐11‐ddUTP using the DIG Gel Shift kit (Roche) by following the manufacturer's instructions. EMSA assays were performed in 20 μl reactions: DIG‐labeled DNA, purified proteins, 1 μg of poly‐[d(A‐T)], 0.1 μg of poly‐L‐lysine, 1 × reaction buffer (20 mmol L^−1 Tris‐HCl, pH 7.9, 0.1 mol L^−1 NaCl, 0.1 mmol L^−1 EDTA, 10% glycerol, 0.01 mol L^−1 MgCl2). The reactions were incubated at room temperature for 15 min and loaded onto 5% polyacrylamide gels in 1 × TBE buffer (Tris, Borate, EDTA, pH 7.9). […]

[5] = test system: XBS1 and XBS2 operator sites; settings: apo-PrgX, ref Bae et al., 2002, cited from earlier work
Source text: We determined effects of C and I on PrgX‐DNA binding using in vitro electrophoretic mobility shift assays (EMSAs).

[6] = test system: +10 probe (10 bp inserted between XBS1 and XBS2 sites); format: binding, Enterococcus faecalis (plasmid pCF10)
Source text: as §2

[7] = test system: B2 m1 DNA probe (XBS2 sequence changed); assay: EMSA: PrgX and RNAP binding to B2 m1 probe (mutated XBS2); set-up: species or system Enterococcus faecalis (plasmid pCF10); settings: PrgX 18, 54 nmol L^−1; RNAP 200, 240 nmol L^−1; RT, 15 min
Source text: as §2

[8] = test system: LT DNA (XBS1 and XBS2 operator sites), P Q promoter region; format: binding, Enterococcus faecalis (plasmid pCF10); settings: LT DNA 8 fmol; PrgX 38-568 nmol L^−1 preincubated 5 min at room temperature with 40 nmol L^−1 peptide (C, I)
Source text: as §1
EMSA assays were performed using 8 fmol of digoxigenin‐labeled LT DNA probes with increasing amounts of PrgX protein. PrgX was preincubated for 5‐min at room temperature with 40 nmol L^−1 of C (a) or I (b) before adding LT DNA. PrgX concentrations: lanes 2 and 6: 38 nmol L^−1; lanes 3 and 7: 76 nmol L^−1; lanes 4 and 8: 190 nmol L^−1; lanes 5 and 9: 568 nmol L^−1. (c) Cartoon showing the predicted products formed by binding PrgX to LT DNA.

[9] = test system: P Q (prgQ promoter); settings: purified PrgX, no peptide, ref Caserta et al., 2012, cited from earlier work
Source text: The target of PrgX‐peptide‐mediated regulation is the prgQ promoter (P Q), which controls expression of the majority of factors involved in pCF10 conjugation. PrgX binds specifically to two operator sites (XBS1 and XBS2) in the P Q region between prgX and prgQ. Because the lower‐affinity XBS2 site overlaps PQ, occupancy of XBS2 by PrgX could impede RNA polymerase binding to the promoter. Based on genetic and structural data, it was proposed that pairs of PrgX dimers could bind to XBS1 and XBS2, with the intervening DNA forming a loop that is stabilized by protein–protein interactions between t ... || It is interesting to consider transcription regulation in the pCF10 system by PrgX in relation to other well‐studied bacterial transcription factors. Many of the canonical transcription factors such as LacI are present in very low concentrations, and are modulated by low molecular weight ligands (co‐repressors, etc.) that are generally more abundant (Muller‐Hill, 1998). In contrast, wild‐type E. faecalis cells carrying pCF10 contain a large excess of PrgX (~15‐fold ratio of X dimers/XBSs) (Caserta et al., 2012), while the extracellular (and probably intracellular) concentrations of the peptide ...

B1: PrgX: master transcription regulator PrgX, a repressor of transcription of the prgQ operon; apo form is a dimer in solution (protein)
chain: MFKIGSVLKQIRQELNYHQIDLYSGIMSKSVYIKVEADSRPISVEELSKFSERLGVNFFEILNRAGMNTKSVNETGKEKLLISKIFTNPDLFDKNFQRIEPKRLTSLQYFSIYLGYISIAHHYNIEVPTFNKTITSDLKHLYDKRTTFFGIDYEIVSNLLNVLPYEEVSSIIKPMYPIVDSFGKDYDLTIQTVLKNALTISIMNRNLKEAQYYINQFEHLKTIKNISINGYYDLEINYLKQIYQFLTDKNIDSYLNAVNIINIFKIIGKEDIHRSLVEELTKISAKEKFTPPKEVTMYYENYVAIENNPIPEIKEQS
modifications: left off: His tag, end not stated, kept
notes: master transcription regulator PrgX, a repressor of transcription of the prgQ operon; apo form is a dimer in solution
For B1, the “lacZ expression (β-galactosidase), 5 bp insertion construct” value ([1]; pBK2 + 5) was “no effect on lacZ activity”, the “lacZ expression (β-galactosidase), 10 bp insertion construct” value ([1]; pBK2 + 10) was “β‐galactosidase expression was repressed” and the “effect on LT DNA shifts / RNAP binding” value [2] was “formation of the high‐molecular‐weight RNAP‐DNA species was nearly eliminated; also recorded: hinders RNAP binding to prgQ promoter”. The “fold higher K D of PrgX dimer to XBS1 site” value [3] was “about 10 fold”, the “fold higher K D of PrgX dimers bound to XBS2” value [3] was ~1000 fold and the Kd ([3]; EMSA densitometry, two-site binding polynomial, apo-PrgX (dimer) on LT DNA, mean ± SD of three independent EMSA experiments, read-out: K xbs1: K D of binding to XBS1 site) was 4.04 ± 3.36 nM. The “shift of +5 probe (band I / band II)” value [4] was “shifted the probe nearly completely to band I, with no distinct supershifted band II”, the “relative affinity for XBS1 vs XBS2 / binding to probes lacking XBS1” value ([5]; listed as Apo‐PrgX) was “binds to XBS1 with relatively higher affinity than to XBS2” and the “relative affinity for XBS1 vs XBS2 / binding to probes lacking XBS1” value ([5]; listed as apo‐PrgX) was “reduced binding of apo‐PrgX to DNA probes lacking XBS1 and virtually no supershifted species resembling Band II”. The “shift of +10 probe (band I / band II)” value [6] was “binding profile was similar to LT DNA wild‐type probe”, the “binding to B2 m1 probe” value [7] was “produced the band I shift, however, there was a dramatic reduction in band II” and the “effect on PrgX-DNA binding: shifted complexes, amount of band II (supershift)” value [8] was “bound to the LT, producing two‐shifted complexes: band I and band II”. The “repression of P Q in vitro” value [9] was “directly represses P Q” and the “repression of P Q in vitro” value ([9]; listed as apo‐PrgX) was “repress prgQ transcription in vitro”.
